In article doi:10.1101/2020.07.07.191163 (bioRxiv, 2020):

Biological target: the molecule itself
Test: native MS

B1: Bacillus subtilis pyruvate kinase PykA (enzyme, B. subtilis, UniProt P80885 1-585, looked up)
chain: MRKTKIVCTIGPASESIEMLTKLMESGMNVARLNFSHGDFEEHGARIKNIREASKKLGKNVGILLDTKGPEIRTHTMENGGIELETGKELIISMDEVVGTTDKISVTYEGLVHDVEQGSTILLDDGLIGLEVLDVDAAKREIKTKVLNNGTLKNKKGVNVPGVSVNLPGITEKDARDIVFGIEQGVDFIAPSFIRRSTDVLEIRELLEEHNAQDIQIIPKIENQEGVDNIDAILEVSDGLMVARGDLGVEIPAEEVPLVQKELIKKCNALGKPVITATQMLDSMQRNPRPTRAEASDVANAIFDGTDAIMLSGETAAGSYPVEAVQTMHNIASRSEEALNYKEILSKRRDQVGMTITDAIGQSVAHTAINLNAAAIVTPTESGHTARMIAKYRPQAPIVAVTVNDSISRKLALVSGVFAESGQNASSTDEMLEDAVQKSLNSGIVKHGDLIVITAGTVGESGTTNLMKVHTVGDIIAKGQGIGRKSAYGPVVVAQNAKEAEQKMTDGAVLVTKSTDRDMIASLEKASALITEEGGLTSHAAVVGLSLGIPVIVGLENATSILTDGQDITVDASRGAVYQGRASVL
How did the “stoichiometry N” value turn out when B1 was run?
The value was 4.
